# Laboratory results from US20020127232A1.
# B1: α2-macroglobulin* (NH3-treated, thiol ester-cleaved human α2-macroglobulin) (protein, UniProt P01023 24-1474, looked up)
# chain: SVSGKPQYMVLVPSLLHTETTEKGCVLLSYLNETVTVSASLESVRGNRSLFTDLEAENDVLHCVAFAVPKSSSNEEVMFLTVQVKGPTQEFKKRTTVMVKNEDSLVFVQTDKSIYKPGQTVKFRVVSMDENFHPLNELIPLVYIQDPKGNRIAQWQSFQLEGGLKQFSFPLSSEPFQGSYKVVVQKKSGGRTEHPFTVEEFVLPKFEVQVTVPKIITILEEEMNVSVCGLYTYGKPVPGHVTVSICRKYSDASDCHGEDSQAFCEKFSGQLNSHGCFYQQVKTKVFQLKRKEYEMKLHTEAQIQEEGTVVELTGRQSSEITRTITKLSFVKVDSHFRQGIPFFGQVRLVDGKGVPIPNKVIFIRGNEANYYSNATTDEHGLVQFSINTTNVMGTSLTVRVNYKDRSPCYGYQWVSEEHEEAHHTAYLVFSPSKSFVHLEPMSHELPCGHTQTVQAHYILNGGTLLGLKKLSFYYLIMAKGGIVRTGTHGLLVKQEDMKGHFSISIPVKSDIAPVARLLIYAVLPTGDVIGDSAKYDVENCLANKVDLSFSPSQSLPASHAHLRVTAAPQSVCALRAVDQSVLLMKPDAELSASSVYNLLPEKDLTGFPGPLNDQDNEDCINRHNVYINGITYTPVSSTNEKDMYSFLEDMGLKAFTNSKIRKPKMCPQLQQYEMHGPEGLRVGFYESDVMGRGHARLVHVEEPHTETVRKYFPETWIWDLVVVNSAGVAEVGVTVPDTITEWKAGAFCLSEDAGLGISSTASLRAFQPFFVELTMPYSVIRGEAFTLKATVLNYLPKCIRVSVQLEASPAFLAVPVEKEQAPHCICANGRQTVSWAVTPKSLGNVNFTVSAEALESQELCGTEVPSVPEHGRKDTVIKPLLVEPEGLEKETTFNSLLCPSGGEVSEELSLKLPPNVVEESARASVSVLGDILGSAMQNTQNLLQMPYGCGEQNMVLFAPNIYVLDYLNETQQLTPEIKSKAIGYLNTGYQRQLNYKHYDGSYSTFGERYGRNQGNTWLTAFVLKTFAQARAYIFIDEAHITQALIWLSQRQKDNGCFRSSGSLLNNAIKGGVEDEVTLSAYITIALLEIPLTVTHPVVRNALFCLESAWKTAQEGDHGSHVYTKALLAYAFALAGNQDKRKEVLKSLNEEAVKKDNSVHWERPQKPKAPVGHFYEPQAPSAEVEMTSYVLLAYLTAQPAPTSEDLTSATNIVKWITKQQNAQGGFSSTQDTVVALHALSKYGAATFTRTGKAAQVTIQSSGTFSSKFQVDNNNRLLLQQVSLPELPGEYSMKVTGEGCVYLQTSLKYNILPEKEEFPFALGVQTLPQTCDEPKAHTSFQISLSVSYTGSRSASNMAIVDVKMVSGFIPLKPTVKMLERSNHVSRTEVSSNHVLIYLDKVSNQTLSLFFTVLQDVPVRDLKPAIVKVYDYYETDEFAIAEYNAPCSKDLGNA
# modifications: thiol ester cleaved by NH3: free Cys949, Gln952 modified with -NH2; bait region intact; radio-iodinated with Na125I in the macrophage binding study
# Tests used:
# [1] = molecular target: α2M receptor on peritoneal macrophages of C57BL/6 mice (mouse) (UniProt Q91ZX7); experiment: saturation binding of 125I-labeled ligand (0.23-60 nM) to mouse peritoneal macrophages at 4 °C for 16 h; one-site fit; concentration based on the mixture of slow and fast forms
# [2] = molecular target: α2M receptor on peritoneal macrophages of C57BL/6 mice (mouse) (UniProt Q91ZX7); experiment: saturation binding of 125I-labeled ligand (0.23-60 nM) to mouse peritoneal macrophages at 4 °C for 16 h; one-site fit
Molecule,Kd [1] [nM],Kd [2] [nM]
"α2M*-lysozyme complex formed by incubation at 50° C. (5 h), radio-iodinated with Na125I (from UniProt P01023 24-1474; P00698 19-147)",8,–
B1,–,5
